According to PMC7072329 (Biomolecules, 2020):
Where no end group is shown, it is not given here. [ ]: non-standard residue; d: D form. The star is where a group is joined. Kyn = Nc1ccccc1C(=O)C[C@H](N)C(=O)O; NMeF = CN[C@@H](Cc1ccccc1)C(=O)O; NHCH2CH2OH = OCCN*

Key:
κ-opioid receptor = molecular target: T1, κ-opioid receptor (guinea pig (endogenous in guinea pig …, UniProt P41144 1-380)); test: radioligand binding; displacement of [^3H]HS665 from guinea pig brain membrane homogenate by unlabelled ligand (10^-10 to 10^-5 M); 50 mM Tris-HCl pH 7.4, 25 °C, 30 min; non-specific binding with 10 μM HS665; IC50 converted into Ki by Cheng-Prusoff; conditions: one partner purified
T1 construct: κ-opioid receptor, guinea pig, endogenous in brain membrane homogenate; defined by displacement of [^3H]HS665; In membranes, not on intact cells; also called KOR; k-opioid receptor; source: endogenous, guinea pig brain membrane homogenate

μ-opioid receptor [1] = molecular target: T2, μ-opioid receptor (rat (endogenous in rat brain), UniProt P33535 1-398); test: radioligand binding; displacement of [^3H]DAMGO from rat brain membrane homogenate by unlabelled ligand (10^-10 to 10^-5 M); 50 mM Tris-HCl pH 7.4, 35 °C, 45 min; non-specific binding with 10 μM naloxone; IC50 converted into Ki by Cheng-Prusoff, one site competition fit; conditions: one partner purified
T2 construct: μ-opioid receptor, rat (Wistar), endogenous in brain membrane homogenate; defined by displacement of [^3H]DAMGO; In membranes, not on intact cells; also called MOR; µ-opioid receptor; source: endogenous, rat brain membrane homogenate

δ-opioid receptor = molecular target: T3, δ-opioid receptor (rat (endogenous in rat brain), UniProt P33533 1-372); test: radioligand binding; conditions: one partner purified
T3 construct: δ-opioid receptor, rat (Wistar), endogenous in brain membrane homogenate; defined by displacement of [^3H]Ile^5,6Delt II; In membranes, not on intact cells; also called DOR; source: endogenous, rat brain membrane homogenate

μ-opioid receptor [2] = molecular target: T2, μ-opioid receptor; test: cell-based or functional assay
μ-opioid receptor [3] = molecular target: T2, μ-opioid receptor; test: cell-based or functional assay; remark: listed apart in the source

T2 sequence (P33535 whole entry): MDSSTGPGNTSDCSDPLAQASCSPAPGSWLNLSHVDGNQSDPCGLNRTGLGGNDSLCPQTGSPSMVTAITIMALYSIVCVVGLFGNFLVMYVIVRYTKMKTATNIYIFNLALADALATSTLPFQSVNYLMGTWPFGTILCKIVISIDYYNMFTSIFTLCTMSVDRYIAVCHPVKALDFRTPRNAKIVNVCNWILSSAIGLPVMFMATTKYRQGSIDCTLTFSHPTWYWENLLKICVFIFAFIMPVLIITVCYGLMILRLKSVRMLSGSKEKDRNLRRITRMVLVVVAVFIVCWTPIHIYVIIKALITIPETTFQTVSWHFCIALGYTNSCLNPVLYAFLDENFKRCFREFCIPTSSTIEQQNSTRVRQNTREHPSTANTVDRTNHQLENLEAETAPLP
T3 sequence (P33533 whole entry, stated change not applied): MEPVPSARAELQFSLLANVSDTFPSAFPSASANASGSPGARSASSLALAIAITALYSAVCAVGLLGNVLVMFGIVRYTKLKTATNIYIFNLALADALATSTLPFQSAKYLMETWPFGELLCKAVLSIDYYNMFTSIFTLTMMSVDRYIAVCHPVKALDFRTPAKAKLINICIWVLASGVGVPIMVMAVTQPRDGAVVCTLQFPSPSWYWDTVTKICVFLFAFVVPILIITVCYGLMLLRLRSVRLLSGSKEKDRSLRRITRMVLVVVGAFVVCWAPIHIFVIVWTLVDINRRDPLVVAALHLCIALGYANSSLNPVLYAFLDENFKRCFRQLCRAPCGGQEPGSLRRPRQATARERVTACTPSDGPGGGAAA
T1 sequence (P41144 whole entry): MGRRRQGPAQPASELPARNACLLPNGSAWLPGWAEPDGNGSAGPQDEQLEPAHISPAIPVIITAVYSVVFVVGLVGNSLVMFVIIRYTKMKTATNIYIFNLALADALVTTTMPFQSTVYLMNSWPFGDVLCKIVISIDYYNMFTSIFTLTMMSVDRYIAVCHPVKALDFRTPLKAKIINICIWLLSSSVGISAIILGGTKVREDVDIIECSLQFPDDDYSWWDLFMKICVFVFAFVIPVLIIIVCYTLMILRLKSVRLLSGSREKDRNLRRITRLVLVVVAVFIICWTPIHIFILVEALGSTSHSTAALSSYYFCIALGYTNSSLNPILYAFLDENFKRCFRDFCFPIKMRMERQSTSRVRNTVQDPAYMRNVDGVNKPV

B1: Peptide K3 (peptide)
chain: YPF[Kyn]-NH2
modifications: N-terminus assumed
SMILES: NC(=O)[C@H](CC(=O)c1ccccc1N)NC(=O)[C@H](Cc1ccccc1)NC(=O)[C@@H]1CCCN1C(=O)[C@@H](N)Cc1ccc(O)cc1
- Ki (κ-opioid receptor): > 10000 nM
- Ki (μ-opioid receptor [1]): 197 nM
- Ki (δ-opioid receptor): 159 nM

Binder: YP[Kyn]F-NH2 [Peptide K2]
- Ki (μ-opioid receptor [1]): 1.39 nM

Binder: Y[dA]GF[Kyn]-OMe [Peptide K4]
- Ki (κ-opioid receptor): > 10000 nM
- Ki (μ-opioid receptor [1]): 2.29 nM
- Ki (δ-opioid receptor): 31.2 nM

Binder: Y[dA]GF[Kyn]-NH2 [Peptide K6]
- Ki (κ-opioid receptor): 128 nM
- Ki (μ-opioid receptor [1]): 1.84 nM
- Log EC50 of [^35S]GTPγS binding (G-protein activation), rat brain membrane homogenates (μ-opioid receptor [2]): -5.98
- Ki (δ-opioid receptor): 32.5 nM
- logEC50 of [^35S]GTPγS binding as told in the conclusions (differs from Table 2) (μ-opioid receptor [3]): -5.6

Binder: Y[dA]GF[Kyn]-OH [Peptide K5]
- Ki (κ-opioid receptor): > 10000 nM
- Ki (μ-opioid receptor [1]): 9.11 nM
- Ki (δ-opioid receptor): 94.4 nM

B2: Peptide KA1 (peptide)
peptide: Y[dA]G[NMeF][NHCH2CH2OH]-{kynurenic acid (ester on OH)}
notes: the order of couplings in Scheme 1 (ethanolamine-kyna ester, Boc-N-Me-Phe, Boc-Gly, Boc-DAla, Boc-Tyr) agrees; the drawn structure is in Scheme 1; also called kyna-containing peptide; source: synthetic peptide (solution phase synthesis, RP-HPLC purified, TFA salt)
- Ki (κ-opioid receptor): > 10000 nM
- Ki (δ-opioid receptor): 555 nM
